Laboratory results reported in PMC11094025.

Legend:
[1] = molecular target: GST-VAPB-MSP (wild-type MSP-domain of VAPB fused to a GST-tag) (UniProt O95292); assay: peptide pull-down of purified protein, Coomassie gel quantification; settings: parent: est. 1.0; read off a plot
[2] = molecular target: VAPB (Vesicle-Associated-membrane Protein-associated protein B), endogenous (UniProt O95292); assay: peptide pull-down from total HeLa cell lysate, Western blot quantification; settings: parent: est. 1.0; read off a plot

ratio to parent [1]: 1.1 | ratio to parent [2]: 0.5
Substance: ELYS FFAT-2 peptide, non-phosphorylated S1314A; S1326A
